Measurements published in article PMC4552939, “Structural Analysis of the Regulatory Domain of ExsA, a Key Transcriptional Regulator of the Type Three Secretion System in Pseudomonas aeruginosa” (PLoS ONE, 2015).

Tests used:
[1] = molecular target: ExsA-L117R (Pseudomonas aeruginosa) (UniProt P26993)
[2] = molecular target: the molecule itself; assay: crystal structure; hanging-drop vapor diffusion at 25°C; 1.6M MgSO4, 0.1M MES pH 6.5, 0.1M EGTA; dimers A/A' and B/B'' made by crystallographic two-fold axes

In the case of “ExsA-L117R (from UniProt P26993 1-278) (natural protein)”, the activation of transcription in vitro at 16, 32 and 64 nM protein, against wild-type ExsA [1] is reported as 10 fold.

B1: ExsA amino-terminal domain (ExsA-NTD), amino acids 2-178 (domain or fragment)
chain: QGAKSLGRKQITSCHWNIPTFEYRVNKEEGVYVLLEGELTVQDIDSTFCLAPGELLFVRRGSYVVSTKGKDSRILWIPLSAQFLQGFVQRFGALLSEVERCDEPVPGIIAFAATPLLAGCVKGLKELLVHEHPPMLACLKIEELLMLFAFSPQGPLLMSVLRQLSNRHVERLQLFME
notes: thermolysin product, amino acids 2-178 by LC-MS; A selenomethionine-substituted sample was also made (E. coli BL21(DE3), minimal medium), crystallised under identical conditions and used for phasing; Residues 2-10 and 166-178 (chain A) and 2-9 and 167-178 (chain B) gave no density; also called regulatory domain of ExsA; ExsA N-terminal domain protein; source: E. coli BL21(DE3) CodonPlus RIL, …
B1: binds [2].
